Patent US20150274802A1 (INDIANA UNIVERSITY RESEARCH AND TECHNOLOGY, published 2015)
“And” between values parts separate entries of the source, which are not always exact repeats. Identical values can stand only once. Like-named read-outs stand apart in the source and are kept apart here. Bridge positions count the residues as written; N and C are the ends. Square brackets hold non-standard residues; d marks the D form. Ends that are not written are not given here. I, II: the chains in the order shown. Phe(4-NH2) = Nc1ccc(C[C@H](N)C(=O)O)cc1

B1: IGF1(Y^B16L^B17)(AlaPro)^A-1,0 (ligand)
chain 1: APGIVDECCFRSCDLRRLEMYCA
chain 2: GPETLCGAELVDALYLVCGDRGFYFNKPT
B2: IGF-1 A:B(E10Y16L17) (ligand)
chain 1: GIVDECCFRSCDLRRLEMYCA-NH2
chain 2: GPETLCGAELVDALYLVCGDRGFYFNKPT-NH2
modifications: cysteine pairing not given here
B3: IGF-1 A:IGF-1 B(1-8)-In (9-17)-IGF-1 B(18-30) (ligand)
chain 1: GIVDECCFRSCDLRRLEMYCA-NH2
chain 2: GPETLCGSHLVEALYLVCGDRGFYFNKPT-NH2
modifications: disulfide I:6-I:11, I:20-II:18, I:7-II:6 (inferred); not fully specified
notes: chimeric B chain
B4: MIU-57: B1-PEG20K MIU-35 (ligand)
chain: {PEG 20 kDa}-GPEHLCGAHLVDALYLVCGDRGFYGYGSSSRRAPQTGIVDECCHRSCDLRRLENYCN
modifications: ends and bridges not checked
B5: IGF-1 A:B (ligand, human)
chain 1: GIVDECCFRSCDLRRLEMYCA
chain 2: GPETLCGAELVDALQFVCGDRGFYFNKPT
modifications: not fully specified (C-terminus); ends and bridges not checked; also: C-terminal amide, chain not given here
notes: domain: B chain; two-chain form of IGF-1
B6: IGF-2 AB(YL) (ligand)
chain 1: not shown
chain 2: AYRPSETLCGGELVDTLYLVCGDRGFYFSRPA
modifications: C-terminal amide
B7: IGF-1 A:B(E10Y16L17)-E31E32 B-COOH (ligand)
chain 1: GIVDECCFRSCDLRRLEMYCA
chain 2: GPETLCGAELVDALYLVCGDRGFYFNKPTEE-OH
modifications: not fully specified (C-terminus); ends and bridges not checked
B8: IGF-1 A:B(H5D10Y16L17) (S═O) DPI (ligand)
chain 1: GIVDECCFRSCDLRRLEMYCA-NH2
chain 2: GPEHLCGADLVDALYLVCGDRGFY-NH2
modifications: ends and bridges not checked; also: (S═O) oxidation, residue not given here
B9: IGF-1 A:B (H5D10Y16L17) DPI (ligand)
chain 1: GIVDECCFRSCDLRRLEMYCA-NH2
chain 2: GPEHLCGADLVDALYLVCGDRGFY-NH2
modifications: cysteine pairing not given here
B10: IGF-1 A (H8 A9 N21):B(H5D10Y16L17A22) (S═O) DPI A-COOH (ligand)
chain 1: GIVDECCHASCDLRRLEMYCN-OH
chain 2: GPEHLCGADLVDALYLVCGDAGFY
modifications: not fully specified (C-terminus); ends and bridges not checked; also: (S═O) oxidation, residue not given here
B11: IGF-1 A:B (E10Y16L17) DPI (ligand)
chain 1: GIVDECCFRSCDLRRLEMYCA-NH2
chain 2: GPETLCGAELVDALYLVCGDRGFY-NH2
modifications: cysteine pairing not given here
B12: IGF-1 A:B(D10Y16L17) DPI A-COOH (ligand)
chain 1: GIVDECCFRSCDLRRLEMYCA-OH
chain 2: GPETLCGADLVDALYLVCGDRGFY-NH2
modifications: ends and bridges not checked
B13: IGF-1 A (H8 A9 N21):B(H5D10Y16L17) DPI A-COOH (ligand)
chain 1: GIVDECCHASCDLRRLEMYCN-OH
chain 2: GPEHLCGADLVDALYLVCGDRGFY
modifications: not fully specified (C-terminus); ends and bridges not checked
B14: IGF-1 A (H8 A9 N21):B(H5D10Y16L17 A22) DPI A-COOH (ligand)
chain 1: GIVDECCHASCDLRRLEMYCN-OH
chain 2: GPEHLCGADLVDALYLVCGDAGFY
modifications: not fully specified (C-terminus); ends and bridges not checked
B15: IGF-1 A:In B(1-5)-IGF-1 B(YL) (6-30) (ligand)
chain 1: GIVDECCFRSCDLRRLEMYCA
chain 2: FVNQHLCGAELVDALYLVCGDRGFYFNKPT
modifications: ends and bridges not checked; also: C-terminal amide, chain not given here
notes: chimeric B chain
B16: B^1(H5,10Y16L17)25-C^1-A^1(T8N18,21) (ligand)
chain: GPEHLCGAHLVDALYLVCGDRGFYGYGSSSRRAPQTGIVDECCTRSCDLRRLENYCN
B17: GE5W-B^1(H5,10Y16L17)25-C^1-A^1(A1H8N18,21) (ligand)
chain: GEEEEEWGPEHLCGAHLVDALYLVCGDRGFYGYGSSSRRAPQTAIVDECCHRSCDLRRLENYCN
B18: IGF1 (Y^B16L^B17) (p-NH2-F)^A19 amide (ligand)
chain 1: GIVDECCFRSCDLRRLEM[Phe(4-NH2)]CA
chain 2: GPETLCGAELVDALYLVCGDRGFYFNKPT
modifications: not fully specified; ends and bridges not checked
notes: also called IGF1 (Y^B16L^B17) A(p-NH2-F)^19

Tests used:
human insulin receptor [1] = biological target: T1, human insulin receptor (human, UniProt P06213 28-1382); assay: competition SPA, [125I]insulin
T1 construct: whole, on cells; receptor-transfected HEK293 cells in the phosphorylation assay

human insulin receptor [2] = biological target: T1, human insulin receptor; assay: cell-based or functional assay
human IGF-1 receptor [3] = biological target: T2, human IGF-1 receptor (human, UniProt P08069 31-1367); assay: competition SPA, [125I]IGF-1
T2 construct: whole, on cells; transfected HEK293 cells in the phosphorylation assay
Experimental: (§1) Non-specifically bound (NSB) radioactivity was measured in the wells with a four-fold concentration excess of “cold” native ligand than the highest concentration in test samples. Total bound radioactivity was detected in the wells with no competitor. Percent specific binding was calculated as following: % Specific Binding=(Bound-NSB/Total bound-NSB)×100. IC50 values were determined by using Origin software (OriginLab, Northampton, Mass.).

human insulin receptor [4] = biological target: T1, human insulin receptor; assay: competition SPA, [125I]insulin; remark: listed apart in the source
Experimental: as §1

human IGF-1 receptor [5] = biological target: T2, human IGF-1 receptor; assay: cell-based or functional assay
human IGF-1 receptor [6] = biological target: T2, human IGF-1 receptor; assay: cell-based or functional assay; remark: listed apart in the source
human IGF-1 receptor [7] = biological target: T2, human IGF-1 receptor; assay: cell-based or functional assay; remark: listed apart in the source
human IGF-1 receptor [8] = biological target: T2, human IGF-1 receptor; assay: cell-based or functional assay; remark: listed apart in the source
human insulin receptor [9] = biological target: T1, human insulin receptor; assay: competition SPA, [125I]insulin; remark: listed apart in the source

Binder	% IGF-1 (in test) (human IGF-1 receptor [3]) [%]	% native IGF-1 activity (0.55 nM) (human IGF-1 receptor [3]) [%]	% insulin (in test) (human insulin receptor [4]) [%]	IC50 (human insulin receptor [4]) [nM]	other results
B1					IC50 (human insulin receptor [1]): 1.93 nM
B2					% Insulin (human insulin receptor [2]): 49.2%; EC50, receptor phosphorylation (human insulin receptor [2]): 2.57 nM
B3	0.3	0.4	19.1	1.59	% native insulin activity (0.6 nM) (human insulin receptor [4]): 37.7%
B4					Phosphorylation (EC50), % IGF-1 R (human IGF-1 receptor [5]): 1.2%; % Insulin Activity (in vitro, assay not named) (human IGF-1 receptor [6]): 1.2%; % (potency at the receptor, assay not named) (human IGF-1 receptor [7]): 1.2%
B5			5.8	10.4	% native insulin activity (0.6 nM) (human insulin receptor [4]): 5.8%
B6				6.81	
B7	3	3.1			EC50, receptor phosphorylation (human insulin receptor [2]): 7 nM and 8.52 nM
B8			316	0.25	
B9	11.2	11.8	479	0.16	% IGF (human IGF-1 receptor [8]): 7.1%; EC50, receptor phosphorylation (human IGF-1 receptor [8]): 12.2 nM
B10			401		
B11	3.3	2.4			
B12	7.7	8.1			% Insulin (human insulin receptor [2]): 1580%; % IGF (human IGF-1 receptor [8]): 112%; EC50, receptor phosphorylation (human IGF-1 receptor [8]): 0.78 nM
B13	12.9	13.6			EC50, receptor phosphorylation (human insulin receptor [2]): 0.15 nM and 0.25 nM; % IGF (human IGF-1 receptor [8]): 181%; EC50, receptor phosphorylation (human IGF-1 receptor [8]): 0.43 nM
B14	2.3	2.4	1170	0.12	EC50, receptor phosphorylation (human insulin receptor [2]): 0.35 nM and 0.44 nM; % IGF (human IGF-1 receptor [8]): 7.7%; EC50, receptor phosphorylation (human IGF-1 receptor [8]): 11.3 nM
B15	3.6	2			
B16					% (potency at the receptor, assay not named) (human IGF-1 receptor [7]): 3.7%
B17					% (potency at the receptor, assay not named) (human IGF-1 receptor [7]): 0.5%
B18					IC50 (human insulin receptor [9]): 1.08 nM
